From the supplement of paper PMC10126150
± gives the standard deviation of the averaged measurements.

These sequences were tested on ATP (assay: switch fluorescence ratio, 500 uM ATP over buffer (Cy3 cluster intensity, sum of 5 cycles each) (fold (ratio)); higher = stronger signal-on switching upon ATP binding; sequences stand for … in TCGTCGGCAGCGTCAGATGTGTATAAGAGACAGTTTTTTTTTTTTTTTTTTTTTTTTT…TC). Settings: aptamer strand: ATP DNA aptamer (quencher-CACCTGGGGGAGTATTGCGGAGGAAGG + anchor), 100 nM annealed; ATP concentration: 500 uM.
In short: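 Cy3-labelled switching-strand clusters on a modified Illumina MiSeq flow-cell were annealed to 100 nM quencher-labelled ATP aptamer and imaged first in selection buffer, then after 15 min with 500 uM ATP at 22 °C. NaOH stripping and re-annealing separated each of five buffer/ATP cycles, and clusters outside 100-1000 RFU were excluded. The fluorescence ratio sums target-cycle Cy3 intensity over buffer-cycle Cy3 intensity per cluster and averages it per switch-domain sequence.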
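Further: ATP exposure 15 min at 22 °C before imaging.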

Row | Sequence | switch fluorescence ratio
1 | CATGAGTAAG | 1 ± 0.015
2 | CATGAGTATT | 0.954 ± 0.033
3 | CATGATGTTG | 0.975 ± 0.026
4 | CATGCAGCAT | 1.11 ± 0.02
5 | CATGCCGCAT | 1.133 ± 0.0092
6 | CATGCTAAGT | 0.997 ± 0.011
7 | CATGCTGGG | 0.992 ± 0.04
8 | CATGCTTGGC | 1.01 ± 0.055
9 | CATGCTTTGT | 0.9924 ± 0.0069
10 | CATGGAGGTC | 1.03 ± 0.026
11 | CATGGAGTGT | 1.01 ± 0.026
12 | CATGGATACG | 1.01 ± 0.021
13 | CATGGGAGAG | 1.05 ± 0.026
14 | CATGGGAGCT | 1.01 ± 0.043
15 | CATGGGGCCT | 0.9984 ± 0.0027
16 | CATGGGGGAG | 0.978 ± 0.035
17 | CATGGGGGTA | 0.982 ± 0.026
18 | CATGGGTGCG | 1.02 ± 0.014
19 | CATGGTATTA | 1.01 ± 0.044
20 | CATGGTCATG | 1 ± 0.017
21 | CATGGTGTGT | 1.01 ± 0.011
22 | CATGTAAGGC | 1.03 ± 0.021
23 | CATGTATTGG | 0.991 ± 0.021
24 | CATGTCATTG | 1.01 ± 0.015
25 | CATGTCCAGG | 1.46 ± 0.059

Row | Sequence | switch fluorescence ratio
26 | CATGTCGAGC | 1.02 ± 0.059
27 | CATGTCGTTT | 1 ± 0.017
28 | CATGTGCACC | 1.014 ± 0.0092
29 | CATGTGTAAT | 1.009 ± 0.0086
30 | CATGTTCTTT | 0.999 ± 0.026
31 | CATGTTGAAG | 0.986 ± 0.077
32 | CATGTTTGCT | 0.961 ± 0.02
33 | CATGTTTTGC | 1.01 ± 0.065
34 | CATTAATGGG | 1.01 ± 0.019
35 | CATTACCGGA | 1.012 ± 0.0098
36 | CATTAGCAGG | 1.08 ± 0.032
37 | CATTAGCCAG | 0.99754 ± 0.00029
38 | CATTAGGGCT | 0.978 ± 0.015
39 | CATTATGATG | 1.01 ± 0.013
40 | CATTCACATT | 1.05 ± 0.034
41 | CATTCAGTTT | 0.949 ± 0.021
42 | CATTCCGAGA | 1.4 ± 0.024
43 | CATTCCGGGA | 1.63 ± 0.72
44 | CATTCTACTG | 1.04 ± 0.021
45 | CATTCTGACC | 1.08 ± 0.036
46 | CATTCTGCGC | 1.16 ± 0.05
47 | CATTGACATT | 1.06 ± 0.026
48 | CATTGAGGTT | 0.979 ± 0.02
49 | CATTGATGTG | 1 ± 0.011
50 | CATTGGCCGG | 1.095 ± 0.0025

Row | Sequence | switch fluorescence ratio
51 | CATTGGTAGT | 0.977 ± 0.035
52 | CATTGGTTGT | 0.927 ± 0.025
53 | CATTGTGTAT | 0.975 ± 0.029
54 | CATTTAAAG | 1.01 ± 0.031
55 | CATTTAACGT | 0.991 ± 0.0041
56 | CATTTAGAGG | 1.007 ± 0.0073
57 | CATTTAGTGT | 0.984 ± 0.012
58 | CATTTAGTTG | 0.985 ± 0.042
59 | CATTTATATG | 1.02 ± 0.026
60 | CATTTATGCG | 0.989 ± 0.018
61 | CATTTCAGAG | 1.003 ± 0.0062
62 | CATTTCAGG | 1.05 ± 0.033
63 | CATTTCGTTT | 0.957 ± 0.014
64 | CATTTGAATT | 0.973 ± 0.033
65 | CATTTGCGGA | 0.981 ± 0.055
66 | CATTTGTGGA | 1.003 ± 0.0062
67 | CATTTGTGGT | 1.02 ± 0.014
68 | CATTTTTATC | 0.992 ± 0.012
69 | CATTTTTGTA | 0.986 ± 0.012
70 | CCAAAAGGCT | 1.08 ± 0.044
71 | CCAAATGAAT | 1.03 ± 0.025
72 | CCAAATTGGG | 1.016 ± 0.0048
73 | CCAACAGGTT | 1.69 ± 0.079
74 | CCAACCTGAT | 1.31 ± 0.18
75 | CCAACTTTTC | 1.0433 ± 0.00094

Row | Sequence | switch fluorescence ratio
76 | CCAAGCATAG | 3.63 ± 0.47
77 | CCAAGCATCG | 1.197 ± 0.0062
78 | CCAAGTAGTA | 1.03 ± 0.032
79 | CCAAGTGTGC | 1.26 ± 0.17
80 | CCAAGTTCTC | 0.972 ± 0.021
81 | CCAATAGTTC | 1.08 ± 0.022
82 | CCAATGACGT | 0.979 ± 0.039
83 | CCAATGTATG | 0.998 ± 0.044
84 | CCAATTATGT | 1.01 ± 0.025
85 | CCAATTTGGG | 0.964 ± 0.029
86 | CCACAATCAG | 1.274 ± 0.012
87 | CCACACGTTT | 1.13 ± 0.076
88 | CCACAGAGGG | 1.21 ± 0.17
89 | CCACATCCAT | 1.044 ± 0.01
90 | CCACCATATT | 1.07 ± 0.039
91 | CCACCGGGGC | 2.3 ± 0.12
92 | CCACGCCAGA | 1.28 ± 0.052
93 | CCACTAGACC | 1.14 ± 0.026
94 | CCACTTTGGG | 1 ± 0.069
95 | CCAGAACTTA | 1.03 ± 0.026
96 | CCAGAGGGTT | 1.03 ± 0.031
97 | CCAGATATCA | 0.999 ± 0.054
98 | CCAGCAGGTA | 1.13 ± 0.064
99 | CCAGCGCACG | 1.541 ± 0.014
100 | CCAGGAAACG | 0.99 ± 0.072

Row | Sequence | switch fluorescence ratio
101 | CCAGGCACTG | 1.03 ± 0.021
102 | CCAGGCGGGG | 0.9969 ± 0.0046
103 | CCAGGCTATG | 1.012 ± 0.0047
104 | CCAGGCTGTT | 1.07 ± 0.023
105 | CCAGGGAGTG | 1.04 ± 0.015
106 | CCAGGGCGAA | 1.064 ± 0.0056
107 | CCAGGGGGCA | 1.13 ± 0.14
108 | CCAGGTATGA | 1.03 ± 0.035
109 | CCAGGTGGCA | 2.83 ± 0.24
110 | CCAGGTTATC | 1.04 ± 0.032
111 | CCAGTAGTCC | 1.14 ± 0.0031
112 | CCAGTAGTTA | 0.999 ± 0.015
113 | CCAGTATATT | 1.02 ± 0.043
114 | CCAGTATCTG | 0.998 ± 0.013
115 | CCAGTATGTT | 0.993 ± 0.024
116 | CCAGTGAATA | 1.06 ± 0.021
117 | CCAGTGTGAG | 1.13 ± 0.039
118 | CCAGTTAGGA | 1.01 ± 0.033
119 | CCAGTTGATA | 0.991 ± 0.032
120 | CCAGTTTCTG | 1.02 ± 0.012
121 | CCAGTTTTCC | 1.01 ± 0.036
122 | CCATATCCAA | 1.06 ± 0.055
123 | CCATATGT | 0.985 ± 0.028
124 | CCATCATAGA | 0.9887 ± 0.0061
125 | CCATCGTACC | 1.3 ± 0.018

Row | Sequence | switch fluorescence ratio
126 | CCATCTAGTT | 0.9681 ± 0.0047
127 | CCATGACTCT | 0.983 ± 0.016
128 | CCATGGCCAC | 1.0321 ± 0.00059
129 | CCATGGCCTG | 0.97 ± 0.042
130 | CCATGGGGGT | 1.16 ± 0.14
131 | CCATGTGGG | 1.02 ± 0.013
132 | CCATGTGTGC | 1.02 ± 0.027
133 | CCATGTGTGT | 1.0078 ± 7.5e-05
134 | CCATTAAAAG | 1 ± 0.052
135 | CCATTAGGAG | 0.988 ± 0.012
136 | CCATTAGGGG | 1.01 ± 0.044
137 | CCATTAGTTG | 0.998 ± 0.02
138 | CCATTATTTT | 1 ± 0.03
139 | CCATTCTAGA | 1.012 ± 0.0013
140 | CCATTCTCTC | 0.974 ± 0.082
141 | CCATTGGGGT | 0.995 ± 0.017
142 | CCATTGTAAT | 1.1 ± 0.024
143 | CCATTGTGTG | 0.98955 ± 0.00067
144 | CCATTTGCGC | 1.02 ± 0.034
145 | CCATTTGTTG | 0.971 ± 0.02
146 | CCATTTTTAC | 1.1 ± 0.13
147 | CCCAAAATGC | 2.87 ± 1.5
148 | CCCAGGAGGC | 1.08 ± 0.03
149 | CCCATCCATC | 1.03 ± 0.029
150 | CCCATGTGAG | 1.09 ± 0.022

Row | Sequence | switch fluorescence ratio
151 | CCCATTGTTT | 1.01 ± 0.022
152 | CCCATTTAGT | 1.04 ± 0.023
153 | CCCCAAGCAG | 2.497 ± 0.0041
154 | CCCCACTGTG | 1.53 ± 0.69
155 | CCCCAGGCAT | 2.68 ± 0.5
156 | CCCCCGGGGT | 1.83 ± 0.38
157 | CCCCGGATGG | 1.26 ± 0.22
158 | CCCCTGGATA | 1.03 ± 0.043
159 | CCCCTGGCAT | 1.42 ± 0.022
160 | CCCGCGGTGT | 2.41 ± 0.19
161 | CCCGCTAGTG | 1.54 ± 0.12
162 | CCCGGAAGGT | 1.041 ± 0.0048
163 | CCCGGGGGGT | 1.56 ± 1
164 | CCCGGGGGTT | 1.14 ± 0.13
165 | CCCGGGTAGG | 1.041 ± 0.0026
166 | CCCGTATACA | 1.206 ± 0.0072
167 | CCCTATCAAT | 1.1 ± 0.038
168 | CCCTATTTTT | 1.01 ± 0.035
169 | CCCTCTATTC | 1.06 ± 0.03
170 | CCCTGAGGGT | 1.01 ± 0.023
171 | CCCTTATGGT | 0.9932 ± 0.0086
172 | CCCTTGGATA | 0.993 ± 0.021
173 | CCCTTGTCCG | 1.05 ± 0.037
174 | CCCTTTTGGG | 0.997 ± 0.035
175 | CCGAACGTCG | 1.88 ± 0.27

Row | Sequence | switch fluorescence ratio
176 | CCGAACTGAT | 1.13 ± 0.027
177 | CCGAAGGATT | 1.022 ± 0.0044
178 | CCGACGGAGG | 1.99 ± 1.2
179 | CCGAGAGAGC | 1.13 ± 0.04
180 | CCGAGAGGGC | 1.15 ± 0.092
181 | CCGAGGAAGC | 1.34 ± 0.14
182 | CCGAGTTAAG | 1.08 ± 0.012
183 | CCGATGGTCT | 1.25 ± 0.072
184 | CCGATGTGGT | 1.57 ± 0.039
185 | CCGATGTGTC | 2.42 ± 0.52
186 | CCGCCCGGAT | 1.14 ± 0.018
187 | CCGCGAGCTA | 4.52 ± 1.1
188 | CCGCGGCTTG | 1.12 ± 0.053
189 | CCGCTGGATG | 1.202 ± 0.011
190 | CCGCTGGGGG | 1.177 ± 0.0036
191 | CCGCTGGTGT | 3.59 ± 0.29
192 | CCGCTTGAGA | 1.08 ± 0.025
193 | CCGGACACGA | 1.39 ± 0.042
194 | CCGGACAGGT | 1.13 ± 0.023
195 | CCGGAGAGGG | 1.7 ± 0.61
196 | CCGGAGATCC | 2.06 ± 0.22
197 | CCGGATATGT | 1.08 ± 0.046
198 | CCGGATGGGT | 1.012 ± 0.0037
199 | CCGGATGGTG | 1.017 ± 0.0044
200 | CCGGCGGATT | 1.08 ± 0.056
